The source of these data is patent publication US20040176568A1 (GENERAL HOSPITAL, published 2004).

Where two headings read alike, the source gives them in different places. No end group written: not given here.

Broadly, the IC50 is the point on the concentration scale where inhibition reaches its midpoint.

In assay [1] the target is T1, human PTH-1 receptor (human, UniProt Q03431 27-593).
T1 sequence (looked up): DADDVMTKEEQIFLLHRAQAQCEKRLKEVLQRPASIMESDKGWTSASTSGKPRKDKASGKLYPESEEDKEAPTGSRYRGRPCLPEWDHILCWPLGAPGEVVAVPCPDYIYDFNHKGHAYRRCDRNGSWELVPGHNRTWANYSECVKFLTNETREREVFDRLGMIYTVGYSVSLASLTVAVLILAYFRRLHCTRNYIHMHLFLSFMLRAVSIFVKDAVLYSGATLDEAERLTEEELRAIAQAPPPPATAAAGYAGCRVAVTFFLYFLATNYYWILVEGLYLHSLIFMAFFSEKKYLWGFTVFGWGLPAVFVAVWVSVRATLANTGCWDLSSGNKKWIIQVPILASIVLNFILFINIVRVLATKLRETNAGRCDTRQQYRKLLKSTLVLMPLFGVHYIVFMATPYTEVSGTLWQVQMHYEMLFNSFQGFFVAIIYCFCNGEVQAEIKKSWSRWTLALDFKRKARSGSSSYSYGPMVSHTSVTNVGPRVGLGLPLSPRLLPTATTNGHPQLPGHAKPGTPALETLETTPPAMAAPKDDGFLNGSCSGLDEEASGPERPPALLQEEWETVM
As to the kind of experiment: cell-based or functional assay.

Assay [2] deals with T1, human PTH-1 receptor. As to the kind of experiment: radioligand binding, HKRK B7 cells (human PTH-1 receptor).
Assay [3] concerns the target T1, human PTH-1 receptor. As to the kind of experiment: cell-based or functional assay. The source holds these as a separate data set.
In assay [4] the target is T1, human PTH-1 receptor. As to the kind of experiment: cell-based or functional assay. The source holds these as a separate data set.
Assay [5] deals with T2, rat PTH-1 receptor (rat, UniProt P25961 27-591).
T2 construct: whole, on cells; recombinant receptor on cells; also called rat PTH/PTHrP receptor
T2 sequence (looked up): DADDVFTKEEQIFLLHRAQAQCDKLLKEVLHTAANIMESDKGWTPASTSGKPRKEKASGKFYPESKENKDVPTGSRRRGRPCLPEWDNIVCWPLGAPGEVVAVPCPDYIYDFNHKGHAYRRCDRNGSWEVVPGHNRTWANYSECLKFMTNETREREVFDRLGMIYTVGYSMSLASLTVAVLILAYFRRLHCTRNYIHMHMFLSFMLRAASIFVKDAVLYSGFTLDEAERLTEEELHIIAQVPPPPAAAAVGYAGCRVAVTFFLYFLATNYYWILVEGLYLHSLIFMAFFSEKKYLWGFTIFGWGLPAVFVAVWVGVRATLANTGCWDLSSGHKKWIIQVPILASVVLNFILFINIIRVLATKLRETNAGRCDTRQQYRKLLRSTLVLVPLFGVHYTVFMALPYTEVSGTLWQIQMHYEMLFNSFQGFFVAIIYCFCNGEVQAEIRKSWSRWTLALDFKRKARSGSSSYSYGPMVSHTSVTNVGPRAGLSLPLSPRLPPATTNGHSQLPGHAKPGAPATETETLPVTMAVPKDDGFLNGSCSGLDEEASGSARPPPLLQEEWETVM
As to the kind of experiment: radioligand competition, EW5 cells (rat PTH-1 receptor). The text has this:
(§1) Cell layers were washed three times before solubilization for determination of cell-associated radioactivity.
For orientation: Displacement assays read how much labelled ligand stays bound in the presence of the test substance.

Assay [6] addresses T1, human PTH-1 receptor. As to the kind of experiment: radioligand competition, HKRK B7 cells (human PTH-1 receptor).
Excerpt: as §1

Assay [7] deals with T2, rat PTH-1 receptor. As to the kind of experiment: radioligand competition, EW5 cells (rat) against HKRK B7 cells (human).
Excerpt: as §1

Assay [8] has as its target T2, rat PTH-1 receptor. As to the kind of experiment: cell-based or functional assay.

“desamino[Ala^1]hPTH-(1-34) (from UniProt P01270 32-65) (peptide)”: the PLC Activity (% Basal), 1000 nM peptide, transfected HEK-293 cells with human PTH-1 receptor [1] stood at 106 % Basal.
For the molecule “hPTHrP(1-36) (from UniProt P12272 37-72) (peptide)”, the PLC activation, percent of basal at 1000 nM peptide, HKRK B7 cells (percent of basal) in the assay with human PTH-1 receptor [1] amounted to 178.
Consider “[Tyr^0]hPTH-(1-34) (from UniProt P01270 32-65) (peptide)”, for which, in the assay with human PTH-1 receptor [1], the PLC activity, percent of basal at 1000 nM peptide (percent of basal) turned out to be 105.
With “^125I-[Nle^8,21, Tyr^34]rat PTH-(1-34) (from UniProt P04089 32-65) (peptide)”, the cell-associated radioactivity, basal (no competitor) with human PTH-1 receptor [2] came out at 25500 cpm/well.
Molecule “desamino[Gly^1]hPTH-(1-34) (from UniProt P01270 32-65) (peptide)” gave a PLC Activity (% Basal), 1000 nM peptide, transfected HEK-293 cells in the assay with human PTH-1 receptor [1] of 108 % Basal.
In the assay with human PTH-1 receptor [1], “desamino-hPTHrP(1-36) (from UniProt P12272 37-72) (peptide)” displayed a PLC activation, percent of basal at 1000 nM peptide, HKRK B7 cells (percent of basal) of 101.
VSEIQLMHNLGKHLNSMERVEWLRKKLQDVHNY-NH2 [hPTH-(2-34)]: in the assay with human PTH-1 receptor [3], the “PLC Activity (% Basal), 1000 nM peptide, transfected HEK-293 cells” value (“PLC Activity (% Basal), 1000 nM peptide” below) was 88 % Basal.
For SVSEIQLMHNLGKHLNSMERVEWLRKK-NH2 [hPTH-(1-27)], in the assay with human PTH-1 receptor [4], the “EC50 of AC activation, HKRK B7 cells” value came to 100 nM and the “fold loss of AC activity on removal of Leu^28” value was approximately 100 fold. Besides, the “PLC Activity (% Basal), 1000 nM peptide” value with human PTH-1 receptor [3] was found to be 95 % Basal.
Consider SVSEIQLMHNLGKHLNSMERVEWLRKKLQDVHNY-NH2 [hPTH-(1-34)], for which the “PLC Activity (% Basal), 1000 nM peptide” value with human PTH-1 receptor [3] was 854 % Basal.
With AVSEIQLMHNLGKHLNSMRRVEWLRKK-NH2 [[Ala^1,Arg^19]hPTH-(1-27)], the “fold improvement of EC50 for AC activation over hPTH-(1-27)” value with human PTH-1 receptor [4] turned out to be 10 fold.
Take SVSEIQLMHNLGKHLNSMERVEWLRK-NH2 [hPTH-(1-26)]: the “fold loss of AC potency against hPTH-(1-27)” value in the assay with human PTH-1 receptor [4] was found to be 10 fold.
For the molecule SVSEIQLMHNLGKHLNSMERVEWLRKKLQ-NH2 (peptide, UniProt P01270 32-60, looked up) [hPTH-(1-29)], the “EC50 of PLC activation (IP3 formation), HKRK B7 cells” value in the assay with human PTH-1 receptor [4] worked out at 1000 nM.
In the case of GVSEIQLMHNLGKHLNSMERVEWLRKKL-NH2 (Analog of hPTH-(1-28)) [[Gly^1]hPTH-(1-28)], the “fold enhancement of binding affinity by the Gly^1 substitution (against hPTH-(1-28))” value in the assay with rat PTH-1 receptor [5] was found to be 2 fold. In addition, in the assay with human PTH-1 receptor [6], the “fold impairment of binding by the Gly^1 substitution (against hPTH-(1-28))” value was approximately 3 fold.
As for GVSEIQLMHNLGKHLNSMRRVEWLRKKL-NH2 (Analog of hPTH-(1-28)) [[Gly^1,Arg^19]hPTH-(1-28)], in the assay with rat PTH-1 receptor [7], the “fold greater binding affinity than for the human PTH-1 receptor” value was 10 fold. In the assay with human PTH-1 receptor [4], the “fold reduction of PLC potency, HKRK B7 cells” value was approximately 100 fold and the “selectivity for activation of AC (vs. PLC), relative to hPTH-(1-34)” value was more than 40 fold. In addition, in the assay with rat PTH-1 receptor [8], the “fold impairment of EC50 for AC relative to hPTH-(1-34), EW5 cells” value was approximately 6 fold and the “selectivity for AC vs. PLC” value is more than 10 fold. In the assay with rat PTH-1 receptor [5], the “fold enhancement of binding affinity by the Gly^1 substitution (against [Arg^19]hPTH-(1-28))” value was 2 fold, the “fold impairment of binding affinity relative to hPTH-(1-34)” value is approximately 6 fold and the “fold lower binding affinity than hPTH-(1-34)” value stood at 7 fold. Also, in the assay with human PTH-1 receptor [6], the “fold impairment of binding by the Gly^1 substitution (against [Arg^19]hPTH-(1-28))” value is approximately 3 fold, the “fold improvement in binding affinity over [Gly^1]hPTH-(1-28)” value was 5 fold, the “fold lower binding affinity than hPTH(1-34)” value amounted to 30 fold and the “fold reduction of binding relative to hPTH-(1-34)” value was approximately 40 fold.
In the case of SVSEIQLMHNLGKHLNSMERVEWLRKKL-NH2 [hPTH-(1-28)], in the assay with human PTH-1 receptor [4], the “EC50 of AC activation, HKRK B7 cells” value was found to be 1 nM; the “EC50 of PLC activation, HKRK B7 cells” value was determined as 6000 nM; the “fold loss of PLC potency against hPTH-(1-29)” value was approximately 5 fold. Further, the binding result with rat PTH-1 receptor [5] is “binds”. The IC50 with human PTH-1 receptor [6] stood at 1000 nM. The “PLC Activity (% Basal), 1000 nM peptide” value with human PTH-1 receptor [3] is 305 % Basal.
On to SVSEIQLMHNLGKHLNSMRRVEWLRKKL-NH2 (Analog of hPTH-(1-28)) [[Arg^19]hPTH-(1-28)], for which the “EC50 of PLC activation, HKRK B7 cells” value with human PTH-1 receptor [4] is 300 nM. The IC50 with human PTH-1 receptor [6] was 100 nM.
Regarding AVSEIQLMHNLGKHLNSMERVEWLRKKL-NH2 [[Ala^1]hPTH-(1-28)], in the assay with human PTH-1 receptor [4], the “EC50 for PLC activation, HKRK B7 cells” value is 1000 nM.
Take AVSEIQLMHNLGKHLNSMRRVEWLRKKL-NH2 [[Ala^1,Arg^19]hPTH-(1-28)]: in the assay with human PTH-1 receptor [4], the “EC50 for PLC activation, HKRK B7 cells” value worked out at 200 nM and the “fold improvement of EC50 for PLC activation over [Ala^1]hPTH-(1-28)” value was determined as 5 fold.
